Test results reported in article PMC9716016.

Substrate: N
Assay: cells, lysate or membranes
Details: labelled compound; (15NH4)2SO4 (60% 15N), 10 min; N-starved 3 d; qko background subtracted; whole-root uptake

B1: ScAMT2;1 (Saccharum hybrid cultivar SP80-3280) (protein)
chain: MAASGGAYAAQLPAVPEWLNKGDNAWQLTAATLVGIQSMPGLVVLYGSIVKKKWAVNSAFMALYAYASSLLVWVLVGFRMAFGERLLPFWGKAGVALSQGYLVRRASLSATAHGDTPRTEPLYPEATLVLFQFEFAAITLVLLAGSVLGRMNIKAWMAFTPLWLLFSYTVGAFSLWGGGFLYHWGVIDYSGGYVIHLSSGVAGFTAAYWVGPRLKSDRERFSPNNILLMIAGGGLLWMGWAGFNGGAPYAANIAASVAVLNTNVSAATSLLTWTCLDVIFFNKPSVIGAVQGMMTGLVCITPGAGLVQTWAAVIMGVFAGSVPWFTMMILHKKSALLMKVDDTLAVFHTHAVAGLLGGVLTGLLATPELLEIESPVPGLRGAFYGGGAQQVGKQLAGAAFVVAWNVAVTSLILFAIGLLVPLRMPDDQLMIGDDAAHGEEAYALWGDGEKFDATRHDLAARVGGGGMMDREGSADQRMSGMGARGVTIQL
Km: 90.17 µM
